Reference: patent US9845340B2, “Peptides that specifically bind HGF receptor (cMet) and uses thereof” (Dyax Corp., priority 2003, dated 2017)

Experiments:
[1] = molecular target: T1, 3T3 cells that over-express human cMet (Homo sapiens, UniProt P08581); assay: Whole cell ELISA of peptide-displaying phage; format: cell-based; conditions: phage isolate; 3T3 cells expressing human cMet vs. non-expressing 3T3 cells
T1 construct: expressed in transfected cells; host or cells: 3T3 cells
Procedure, shortened: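 3T3 cells over-expressing human cMet seeded 10^5/well, pelleted and fixed with 0.1% glutaraldehyde 12 min at 37 °C. Blocked peptide-displaying phage bound 1 h at room temperature; after PBST wash, bound phage detected with HRP-conjugated anti-M13 antibody.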

cMet-Fc fusion protein = cMet-Fc fusion protein (Homo sapiens, UniProt P08581); assay: Protein phage ELISA: peptide-displaying phage binding to soluble cMet-Fc versus TRAIL-Fc; conditions: phage isolate; cMet-Fc vs. TRAIL-Fc
Chain of cMet-Fc fusion protein (P08581 25-307 limits assumed): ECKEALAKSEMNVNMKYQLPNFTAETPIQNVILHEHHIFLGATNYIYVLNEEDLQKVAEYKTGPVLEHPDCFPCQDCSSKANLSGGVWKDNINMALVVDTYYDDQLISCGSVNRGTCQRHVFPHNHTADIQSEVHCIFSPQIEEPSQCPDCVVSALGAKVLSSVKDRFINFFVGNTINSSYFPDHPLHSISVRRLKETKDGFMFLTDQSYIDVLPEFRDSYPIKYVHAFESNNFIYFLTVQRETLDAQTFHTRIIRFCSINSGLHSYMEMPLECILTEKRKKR
Chain of cMet-Fc fusion protein (P08581 with tags, fused parts or gaps limits assumed): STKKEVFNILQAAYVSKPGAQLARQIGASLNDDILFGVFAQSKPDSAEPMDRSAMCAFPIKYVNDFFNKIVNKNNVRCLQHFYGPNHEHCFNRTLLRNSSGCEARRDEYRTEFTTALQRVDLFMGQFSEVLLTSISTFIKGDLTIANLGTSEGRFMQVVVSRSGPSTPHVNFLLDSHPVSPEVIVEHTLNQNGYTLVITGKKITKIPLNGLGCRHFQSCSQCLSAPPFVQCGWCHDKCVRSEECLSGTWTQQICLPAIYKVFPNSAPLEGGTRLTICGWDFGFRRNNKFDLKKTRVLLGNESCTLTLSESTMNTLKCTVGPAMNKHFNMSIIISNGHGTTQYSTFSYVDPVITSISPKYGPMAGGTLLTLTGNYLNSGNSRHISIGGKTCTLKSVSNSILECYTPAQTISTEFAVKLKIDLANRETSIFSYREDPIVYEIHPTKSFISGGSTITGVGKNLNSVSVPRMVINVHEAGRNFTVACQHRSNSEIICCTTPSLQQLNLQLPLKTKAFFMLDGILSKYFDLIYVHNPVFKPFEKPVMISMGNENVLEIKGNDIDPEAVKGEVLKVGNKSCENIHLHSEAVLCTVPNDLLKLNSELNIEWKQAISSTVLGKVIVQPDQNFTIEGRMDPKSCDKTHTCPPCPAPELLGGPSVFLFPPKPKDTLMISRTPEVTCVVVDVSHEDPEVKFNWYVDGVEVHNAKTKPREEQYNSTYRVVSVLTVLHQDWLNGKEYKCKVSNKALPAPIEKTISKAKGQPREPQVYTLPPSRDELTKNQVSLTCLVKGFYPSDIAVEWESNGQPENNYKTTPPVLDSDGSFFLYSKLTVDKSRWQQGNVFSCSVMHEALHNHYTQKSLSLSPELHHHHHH
Procedure, shortened: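 Plates coated with 0.5 μg/mL cMet-Fc or, as background, TRAIL-Fc, then blocked with 3% BSA in PBST. Peptide-displaying phage bound 2 h at room temperature. Detection with HRP-anti-M13 antibody.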

T1 sequence (P08581 25-1390): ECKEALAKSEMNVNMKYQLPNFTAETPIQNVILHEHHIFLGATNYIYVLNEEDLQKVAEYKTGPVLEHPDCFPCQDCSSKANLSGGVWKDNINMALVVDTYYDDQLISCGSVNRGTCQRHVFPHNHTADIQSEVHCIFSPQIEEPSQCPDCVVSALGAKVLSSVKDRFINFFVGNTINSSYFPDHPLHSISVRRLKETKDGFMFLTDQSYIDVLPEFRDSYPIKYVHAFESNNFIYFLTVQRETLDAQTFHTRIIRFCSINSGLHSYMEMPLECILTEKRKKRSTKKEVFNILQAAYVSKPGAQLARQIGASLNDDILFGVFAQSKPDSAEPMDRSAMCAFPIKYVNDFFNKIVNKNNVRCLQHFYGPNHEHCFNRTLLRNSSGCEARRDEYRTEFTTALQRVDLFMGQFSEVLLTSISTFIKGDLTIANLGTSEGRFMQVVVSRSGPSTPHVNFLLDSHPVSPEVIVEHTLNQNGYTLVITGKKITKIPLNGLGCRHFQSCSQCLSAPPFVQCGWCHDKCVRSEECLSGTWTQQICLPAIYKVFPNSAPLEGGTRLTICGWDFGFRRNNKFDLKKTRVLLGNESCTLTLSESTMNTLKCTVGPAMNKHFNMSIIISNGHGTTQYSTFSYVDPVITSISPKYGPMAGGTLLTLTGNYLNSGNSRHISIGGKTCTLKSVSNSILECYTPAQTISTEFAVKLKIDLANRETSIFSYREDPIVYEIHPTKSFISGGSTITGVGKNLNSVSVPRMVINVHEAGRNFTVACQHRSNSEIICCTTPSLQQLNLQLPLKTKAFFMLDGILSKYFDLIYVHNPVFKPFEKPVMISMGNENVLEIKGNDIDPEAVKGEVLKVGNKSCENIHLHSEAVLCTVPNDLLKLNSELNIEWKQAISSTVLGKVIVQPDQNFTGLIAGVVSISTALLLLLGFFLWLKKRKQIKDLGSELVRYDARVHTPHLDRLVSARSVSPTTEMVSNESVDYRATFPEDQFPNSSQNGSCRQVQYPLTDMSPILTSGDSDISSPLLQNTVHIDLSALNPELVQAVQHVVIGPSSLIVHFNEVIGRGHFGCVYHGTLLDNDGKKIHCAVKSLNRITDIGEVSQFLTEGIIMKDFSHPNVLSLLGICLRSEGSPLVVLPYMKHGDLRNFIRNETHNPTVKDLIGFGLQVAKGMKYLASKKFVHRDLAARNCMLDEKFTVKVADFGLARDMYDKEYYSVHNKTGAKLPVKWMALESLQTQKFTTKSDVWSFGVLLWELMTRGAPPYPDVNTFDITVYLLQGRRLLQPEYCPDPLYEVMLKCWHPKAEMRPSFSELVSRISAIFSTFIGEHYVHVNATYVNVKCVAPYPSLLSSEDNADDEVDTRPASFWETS

Compound	WC ELISA [1]	Protein ELISA (cMet-Fc fusion protein)
GDPWWCFEKDSFIPFACWHHDP (Synthetically generated cMet-binding peptide sequence) [SEQ ID NO: 396]	1.30 fold over background	7.4 fold over background
GDPDECQLNRETFEVWCPWHDP (Synthetically generated cMet-binding peptide sequence) [SEQ ID NO: 401]	1.23 fold over background	4.3 fold over background
AGWGWCSGPPMFMCTEYGT (Synthetically generated cMet-binding peptide sequence) [SEQ ID NO: 099]	1.30 fold over background	4.0 fold over background
AGSWECTGPPSFHCQWYGT (Synthetically generated cMet-binding peptide sequence) [SEQ ID NO: 070]	1.37 fold over background	3.9 fold over background
AGHYWCAGPPTFICMGPGT (Synthetically generated cMet-binding peptide sequence) [SEQ ID NO: 062]	1.40 fold over background	10.2 fold over background
GSTKVCHEKWNQLFCHNQAP (Synthetically generated cMet-binding peptide sequence) [SEQ ID NO: 368]	1.27 fold over background	7.0 fold over background
AQEWQTWTWNMIEVISENKTP (Synthetically generated cMet-binding peptide sequence) [SEQ ID NO: 468]	1.40 fold over background	3.8 fold over background
CC[C@H](C)[C@H](NC(=O)[C@H](Cc1c[nH]c2ccccc12)NC(=O)[C@H](CC(N)=O)NC(=O)CNC(=O)[C@H](C)NC(C)=O)C(=O)N[C@H]1CSSC[C@@H](C(=O)N[C@@H](Cc2c[nH]c3ccccc23)C(=O)N[C@@H](Cc2ccc(O)cc2)C(=O)N[C@@H](Cc2c[nH]cn2)C(=O)NCC(=O)N[C@H](C(=O)NCC(=O)NCC(=O)NCC(=O)N[C@@H](CCCCNC(=O)c2ccc3c(c2)C(=O)OC32c3ccc(O)cc3Oc3cc(O)ccc32)C(N)=O)[C@@H](C)O)NC(=O)CNC(=O)[C@H](Cc2ccccc2)NC(=O)[C@H](CO)NC(=O)[C@@H]2CCCN2C(=O)[C@@H]2CCCN2C(=O)CNC(=O)[C@H]([C@@H](C)O)NC1=O [SEQ ID NO: 078]	1.40 fold over background	4.7 fold over background
CC[C@H](C)[C@H](NC(=O)[C@H](Cc1ccccc1)NC(=O)[C@H](CCC(N)=O)NC(=O)[C@H](Cc1ccccc1)NC(=O)[C@@H](NC(=O)[C@H](Cc1c[nH]c2ccccc12)NC(=O)[C@@H](NC(=O)[C@H](CC(=O)O)NC(=O)[C@H](Cc1ccc(O)cc1)NC(=O)[C@H](CCC(N)=O)NC(=O)[C@H](C)NC(C)=O)[C@@H](C)O)C(C)C)C(=O)N[C@@H](Cc1c[nH]cn1)C(=O)N[C@@H](CCC(=O)O)C(=O)N[C@H](C(=O)N1CCC[C@H]1C(=O)NCC(=O)N[C@@H](CCC(=O)O)C(=O)N[C@@H](CC(C)C)C(=O)N[C@H](C(=O)N[C@@H](C)C(=O)N[C@@H](CCSC)C(=O)N[C@@H](CCC(N)=O)C(=O)NCC(=O)NCC(=O)NCC(=O)N[C@@H](CCCCNC(=O)c1ccc2c(c1)C(=O)OC21c2ccc(O)cc2Oc2cc(O)ccc21)C(N)=O)C(C)C)C(C)C [SEQ ID NO: 454]	1.23 fold over background	8.9 fold over background
AQFMYEKEHYVMSISLPGLWFY (Synthetically generated cMet-binding peptide sequence) [SEQ ID NO: 486]	1.63 fold over background	3.0 fold over background
AGDHYCWEEWWFCWDSGT (Synthetically generated cMet-binding peptide sequence) [SEQ ID NO: 021]	1.37 fold over background	3.5 fold over background
AGKYMCEGFEWFCEMWGT (Synthetically generated cMet-binding peptide sequence) [SEQ ID NO: 037]	1.43 fold over background	4.1 fold over background
AQFPLEFDVPNFSYHWLVSFNP (Synthetically generated cMet-binding peptide sequence) [SEQ ID NO: 460]	1.27 fold over background	5.6 fold over background
CSCC[C@H](NC(=O)CNC(=O)[C@@H]1CCCN1C(=O)[C@H](CO)NC(=O)[C@H](CO)NC(=O)[C@H](Cc1c[nH]c2ccccc12)NC(=O)[C@H](CCCNC(=N)N)NC(=O)[C@H](CCC(N)=O)NC(=O)[C@H](C)NC(C)=O)C(=O)N[C@@H](CO)C(=O)N[C@@H](CCC(N)=O)C(=O)N[C@@H](CO)C(=O)N[C@@H](Cc1ccccc1)C(=O)N[C@H](C(=O)N[C@@H](CC(C)C)C(=O)N[C@@H](CCC(=O)O)C(=O)N[C@@H](Cc1c[nH]c2ccccc12)C(=O)N[C@@H](CCCCN)C(=O)N[C@@H](Cc1c[nH]c2ccccc12)C(=O)N[C@@H](CC(N)=O)C(=O)N[C@@H](CC(=O)O)C(=O)N[C@@H](CC(N)=O)C(=O)NCC(=O)NCC(=O)NCC(=O)N[C@@H](CCCCNC(=O)c1ccc2c(c1)C(=O)OC21c2ccc(O)cc2Oc2cc(O)ccc21)C(N)=O)C(C)C [SEQ ID NO: 453]	1.30 fold over background	11.3 fold over background
CC[C@H](C)[C@H](NC(=O)[C@@H](NC(=O)[C@H](CCC(=O)O)NC(=O)CNC(=O)[C@H](Cc1c[nH]c2ccccc12)NC(=O)[C@H](Cc1c[nH]cn1)NC(=O)[C@@H](NC(=O)[C@H](CC(C)C)NC(=O)CNC(=O)[C@H](CC(=O)O)NC(=O)[C@H](Cc1c[nH]cn1)NC(=O)[C@@H]1CCCN1C(=O)[C@H](Cc1c[nH]c2ccccc12)NC(=O)[C@H](CCC(N)=O)NC(=O)[C@H](C)NC(C)=O)C(C)C)C(C)C)C(=O)N[C@@H](CCSC)C(=O)N[C@@H](CC(C)C)C(=O)N[C@@H](CCCNC(=N)N)C(=O)N[C@@H](Cc1ccccc1)C(=O)NCC(=O)NCC(=O)NCC(=O)N[C@@H](CCCCNC(=O)c1ccc2c(c1)C(=O)OC21c2ccc(O)cc2Oc2cc(O)ccc21)C(N)=O [SEQ ID NO: 479]	1.37 fold over background	3.3 fold over background
AQWGAVDNDWYDWEMEQIWMFE (Synthetically generated cMet-binding peptide sequence) [SEQ ID NO: 491]	1.23 fold over background	3.2 fold over background
AQKTWFLEADLFQMFQEVTWQF (Synthetically generated cMet-binding peptide sequence) [SEQ ID NO: 490]	1.40 fold over background	3.0 fold over background
AGDGWCMAWPEICEWLGT (Synthetically generated cMet-binding peptide sequence) [SEQ ID NO: 014]	1.33 fold over background	4.8 fold over background
CC(=O)N[C@@H](C)C(=O)N[C@@H](CCC(N)=O)C(=O)N[C@@H](CCC(N)=O)C(=O)N[C@@H](C)C(=O)N[C@@H](CO)C(=O)N[C@@H](CCCNC(=N)N)C(=O)N[C@@H](Cc1ccccc1)C(=O)N[C@H](C(=O)N[C@@H](Cc1ccccc1)C(=O)N[C@H](C(=O)N[C@@H](CC(=O)O)C(=O)NCC(=O)N[C@@H](CC(=O)O)C(=O)N[C@@H](CO)C(=O)N[C@@H](Cc1ccc(O)cc1)C(=O)N[C@@H](Cc1c[nH]c2ccccc12)C(=O)N[C@@H](Cc1c[nH]c2ccccc12)C(=O)N[C@@H](Cc1ccccc1)C(=O)N[C@@H](CCC(=O)O)C(=O)N[C@@H](CC(=O)O)C(=O)N[C@@H](Cc1ccccc1)C(=O)NCC(=O)NCC(=O)NCC(=O)N[C@@H](CCCCNC(=O)c1ccc2c(c1)C(=O)OC21c2ccc(O)cc2Oc2cc(O)ccc21)C(N)=O)[C@@H](C)O)[C@@H](C)O [SEQ ID NO: 449]	1.17 fold over background	7.0 fold over background
AQNAVVPPPMLWSIYWDYGREG (Synthetically generated cMet-binding peptide sequence) [SEQ ID NO: 457]	1.37 fold over background	7.0 fold over background
AGAWNCEYPTFICEWQGA (Synthetically generated cMet-binding peptide sequence) [SEQ ID NO: 012]	1.27 fold over background	4.5 fold over background
CC[C@H](C)[C@H](NC(=O)[C@H](CC(=O)O)NC(=O)CNC(=O)[C@H](C)NC(C)=O)C(=O)N[C@H](C(=O)N[C@H]1CSSC[C@@H](C(=O)N[C@@H](Cc2c[nH]c3ccccc23)C(=O)N[C@@H](CO)C(=O)N[C@@H](Cc2c[nH]c3ccccc23)C(=O)NCC(=O)N[C@H](C(=O)NCC(=O)NCC(=O)NCC(=O)N[C@@H](CCCCNC(=O)c2ccc3c(c2)C(=O)OC32c3ccc(O)cc3Oc3cc(O)ccc32)C(N)=O)[C@@H](C)O)NC(=O)[C@H](CCC(=O)O)NC(=O)[C@H](Cc2ccccc2)NC(=O)[C@H](Cc2ccc(O)cc2)NC(=O)[C@@H]2CCCN2C(=O)[C@H](Cc2c[nH]cn2)NC(=O)CNC(=O)[C@H]([C@@H](C)O)NC1=O)C(C)C [SEQ ID NO: 068]	1.33 fold over background	6.3 fold over background
CC(=O)N[C@@H](C)C(=O)NCC(=O)N[C@@H](Cc1ccc(O)cc1)C(=O)N[C@H](C(=O)N[C@@H](CO)C(=O)N[C@H]1CSSC[C@@H](C(=O)N[C@H](C(=O)N2CCC[C@H]2C(=O)N[C@@H](Cc2ccc(O)cc2)C(=O)NCC(=O)N[C@H](C(=O)NCC(=O)NCC(=O)NCC(=O)N[C@@H](CCCCNC(=O)c2ccc3c(c2)C(=O)OC32c3ccc(O)cc3Oc3cc(O)ccc32)C(N)=O)[C@@H](C)O)[C@@H](C)O)NC(=O)[C@H](CCC(=O)O)NC(=O)[C@H](Cc2ccccc2)NC(=O)[C@H](CO)NC(=O)[C@@H]2CCCN2C(=O)[C@@H]2CCCN2C(=O)CNC(=O)[C@H](C(C)C)NC1=O)[C@@H](C)O [SEQ ID NO: 059]	1.43 fold over background	21.2 fold over background
